Columns and labels:
[1] = biological target: T1, Human PD-L1 full-length (human, UniProt Q9NZQ7 19-290); assay: MSD cell binding, CHOK1SV/human PD-L1 cells; x axis without printed unit
T1 construct: also called PDL01021; CHOK1SV/huPDL1

[2] = biological target: T2, Cyno PD-L1 full-length (cynomolgus, UniProt Q9NZQ7 19-290 (human entry)); assay: MSD cell binding, CHOK1SV/cynomolgus PD-L1 cells; x axis without printed unit
T2 construct: also called PDL01022; CHOK1SV/cynoPDL1
T2 sequence (Q9NZQ7 other isoform, or with tags, fused parts or gaps): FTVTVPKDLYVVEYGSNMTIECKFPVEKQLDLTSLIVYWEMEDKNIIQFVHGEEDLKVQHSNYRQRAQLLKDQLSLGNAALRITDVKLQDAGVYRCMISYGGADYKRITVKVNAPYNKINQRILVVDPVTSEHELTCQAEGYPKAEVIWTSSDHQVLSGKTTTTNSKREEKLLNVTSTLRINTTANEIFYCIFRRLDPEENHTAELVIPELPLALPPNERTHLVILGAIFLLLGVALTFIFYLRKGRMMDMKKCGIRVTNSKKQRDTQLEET

T1 sequence (Q9NZQ7 19-290): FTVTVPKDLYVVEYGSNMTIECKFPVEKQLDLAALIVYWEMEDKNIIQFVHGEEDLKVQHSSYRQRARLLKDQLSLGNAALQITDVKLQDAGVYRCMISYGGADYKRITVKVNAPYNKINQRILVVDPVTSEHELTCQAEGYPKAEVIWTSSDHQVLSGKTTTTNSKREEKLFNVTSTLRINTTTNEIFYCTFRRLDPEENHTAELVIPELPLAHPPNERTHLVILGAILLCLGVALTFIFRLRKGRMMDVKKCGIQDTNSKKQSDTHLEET

| binding result [1] | binding result [2] | Binder |
| --- | --- | --- |
| binds | binds | PDL01036 (6F6HL x human IgG1 WT Fc) (Fc fusion, also called 6F6 clone PDL0136; not shown: human IgG1 WT Fc) QGQMQQSGAELVKPGASVKLSCKTSGFTFSSSYITWLKQKPGQSLEWIAWIYVGTGGISYNQKFTGKAQLTVDTSSSTAYMQFSSLTTEDSAIYYCARHGRYHWYFDVWGAGTTVTVSSGGGGSGGGGSGGGGSGGGGSDIVMTQSHKFMSTSVGDRVTITCKASQDVGTAVAWYQKKPGQSPKLLISWASTRHTGVPDRFTGSGSGTDFTLTISNVQSEDLADYFCQQYSSYPYTFGGGTNLEIK |
| binds | binds | PDL01048 (Fc fusion, not shown: a dimerising Fc or GST; small tags and cut ends, also called 7H11LH x human IgG1 WT Fc) scFv: DIVLTQSPASLAVSLGQRATISCRASKSVSKSGYSYLHWYQQKPGQTPKLLIYLASNLESGVPARFSGSGSGTDFTLNIHPVEEEDAATYYCQHSWELPYTFGGGTKLEIKGGGGSGGGGSGGGGSGGGGSEVQLQESGPSLVKPSQTLSLTCSVTGDSITSGYWNWIRKFPGKKLEYMGYISYTGSTYYNPSLKSRISIARDTSKNQYFLQLNSVTTEDTATYYCTRGENWDGGYFDYWGQGTTLTVSS |
| binds | binds | PDL01039 (Fc fusion, also called 7H11HL x human IgG1 WT Fc; not shown: human IgG1 WT Fc (hinge-CH2-CH3) and its junction to the scFv) scFv: EVQLQESGPSLVKPSQTLSLTCSVTGDSITSGYWNWIRKFPGKKLEYMGYISYTGSTYYNPSLKSRISIARDTSKNQYFLQLNSVTTEDTATYYCTRGENWDGGYFDYWGQGTTLTVSSGGGGSGGGGSGGGGSGGGGSDIVLTQSPASLAVSLGQRATISCRASKSVSKSGYSYLHWYQQKPGQTPKLLIYLASNLESGVPARFSGSGSGTDFTLNIHPVEEEDAATYYCQHSWELPYTFGGGTKLEIK |
| binds | binds | PDL01038 (Fc fusion, also called 7A3-2HL x human IgG1 WT Fc; not shown: human IgG1 WT Fc (hinge-CH2-CH3) and its junction to the scFv) scFv: EVQLQESGPSLVKPSQTLSLTCSVTGDSITSGYWNWIRKFPGNRLEYMGFRSYSGTTYYNPSLKSRISITRDTSKNQYYLQLNSVTTEDTATYYCARFSDFGSSENTMDYWGQGTSVTVSSGGGGSGGGGSGGGGSGGGGSDVQITQSPSYLAASPGETITINCRASKSISKYLAWYQEKPGKTNKLLIYSGSTLQSGIPSRFSGSGSGTDFTLTISSLEPEDFAMYYCQQHNEYPFTFGAGTKLEIK |
| binds | binds | PDL01050 (antibody, human IgG1, kappa, V domains shown, positive control; also called 5F11 chimeric mAb) VH: EVKFEESGGGLVQPGGSMKLSCFASGFTFSYYWMNWVRQSPEKGLEWIAEIRLKSNNYATHYAESVKGRFTISRDDSKSSVYLEMNNLRAEDTGIYHCTRPPIYYGNYEAYWGQGTLVTVSA VL: DIQMTQSPSSLSASLGGKVTITCKASQDINKYIAWYQHKPGKGPRLLIHYTSILQPGIPSRFSGSGSGRDYSFSISNLEPEDIATYYCLQYDNLRTFGGGTKLEIKR |
| binds | binds | PDL01051 (antibody, human IgG1, kappa, V domains shown, positive control; also called 7A3 chimeric mAb) VH: EVQLQESGPSLVKPSQTLSLTCSVTGDSITSGYWNWIRKFPGNRLEYMGFRSYSGTTYYNPSLKSRISITRDTSKNQYYLQLNSVTTEDTATYYCARFSDFGSSENTMDYWGQGTSVTVSS VL: DIVMTQSHKFMSTSVGDRVTITCKASQDVGTAVAWYQKKPGQSPKLLISWASTRHTGVPDRFTGSGSGTDFTLTISNVQSEDLADYFCQQYSSYPYTFGGGTNLEIKR |
| binds | binds | PDL01049 (10B2LH x human IgG1 WT Fc) (Fc fusion, not shown: human IgG1 WT Fc) DIQMTQTTSSLSASLGDRVTISCRASQDIRNYLNWYQQKPDGTVKLLIYYTSRLQSGVPSRFSGSGSGTDYSLTITTLEQEDFATYFCQQGNMFPYTFGGGTKLEIKGGGGSGGGGSGGGGSGGGGSKVQLQQSGAEVVKPGASVKLSCKASGYNLTEYIIHWVKQRSGQGLEWIGWFYPGSGSIKYNEKFKDKATLTADKSSTTVYMDLSRLTSEDSAVYFCARHGLYYGFPYWGQGTSVTVSS |
